# Measured values published in patent US20230357422A1 (published 2023).
# Where a chain is given by its changes, count along the chain named.
# B1: A-Ye-13 (Fc fusion)
# chain: EVQLQESGGGLVQAGGSLRLSCAASGFTFDDYAIGWFRQAPGKEREGVLCISSSGGSTYYADSVKGRFTISRDNAKNTVYLQMTNLKPEDTAVYLCGAPRDCSYYTGDDYWGQGTQVTVSSTHTCPPCPAPEAAGGPSVFLFPPKPKDTLMISRTPEVTCVVVDVSHEDPEVKFNWYVDGVEVHNAKTKPREEQYNSTYRVVSVLTVLHQDWLNGKEYKCKVSNKALPAPIEKTISKAKGQPREPQVYTLPPSREEMTKNQVSLTCLVKGFYPSDIAVEWESNGQPENNYKTTPPVLDSDGSFFLYSKLTVDKSRWQQGNVFSCSVMHEALHNHYTQKSLSLSPG
# B2: A-Ye-20 (Fc fusion)
# chain: B1 chain with E1Q, G107S
# B3: A-Na-16 (Fc fusion)
# chain: QVQLVESGGGLVPPGESLRLSCAASGAIFRINTGAWYRQAPGKQRELVASLTTYGKTTYADFVKGRFTISRDDARNTVSLQMNSLKPEDTAIYYCHIGPEPRYGYWGQGTQVTVSSTHTCPPCPAPEAAGGPSVFLFPPKPKDTLMISRTPEVTCVVVDVSHEDPEVKFNWYVDGVEVHNAKTKPREEQYNSTYRVVSVLTVLHQDWLNGKEYKCKVSNKALPAPIEKTISKAKGQPREPQVYTLPPSREEMTKNQVSLTCLVKGFYPSDIAVEWESNGQPENNYKTTPPVLDSDGSFFLYSKLTVDKSRWQQGNVFSCSVMHEALHNHYTQKSLSLSPG
# B4: A-Na-19 (Fc fusion)
# chain: B3 chain with R75K, S79Y
# B5: A-Ye-04 (Fc fusion)
# chain: B3 chain with V5Q, R75K
# B6: A-Na-18 (Fc fusion)
# chain: B3 chain with R75E
# B7: L-Yr-13&14-13 (Fc fusion)
# chain: QVQLQESGGGLVQAGDSLRLSCAASGSTFSITAMGWYRQPPGKQRELVASIITGDGDTNYADSVKGRFTISRDNAKNTMYLQMNSLKPEDTAVYYCYARTGYGSSWLMGHEYDYWGQGTQVTVSSTHTCPPCPAPEAAGGPSVFLFPPKPKDTLMISRTPEVTCVVVDVSHEDPEVKFNWYVDGVEVHNAKTKPREEQYNSTYRVVSVLTVLHQDWLNGKEYKCKVSNKALPAPIEKTISKAKGQPREPQVYTLPPSREEMTKNQVSLTCLVKGFYPSDIAVEWESNGQPENNYKTTPPVLDSDGSFFLYSKLTVDKSRWQQGNVFSCSVMHEALHNHYTQKSLSLSPG
# B8: L-Yr-13&14-11 (Fc fusion)
# chain: B7 chain with S50A, T53M, G54S, A61Q, P88L, S105G, W106R
# B9: L-Yr-13&14-09 (Fc fusion)
# chain: B7 chain with D16G, R19K, T32S, P40A, S50A, I52V, T53I
# B10: L-Yr-13&14-10 (Fc fusion)
# chain: B7 chain with D16G, P40A, K43Q, S50A, I52A, T53S, D57A, S63F, Y80F, T91S
# B11: L-Yr-13&14-12 (Fc fusion)
# chain: B7 chain with S50A, T53M, G54S, A61Q, S105G, M108E
# B12: L-Yr-13&14-02 (Fc fusion)
# chain: QVQLQESGGGLVQAGGSLRLSCAASGGTFSITAMGWYRQAPGQQRELVAAIASGDGATNYADFVKGRFTISRDNAKNTMFLQMNSLKPEDSAVYYCYARTGYGSSWPMGHEYDYWGQGTQVTVSSTHTCPPCPAPEAAGGPSVFLFPPKPKDTLMISRTPEVTCVVVDVSHEDPEVKFNWYVDGVEVHNAKTKPREEQYNSTYRVVSVLTVLHQDWLNGKEYKCKVSNKALPAPIEKTISKAKGQPREPQVYTLPPSREEMTKNQVSLTCLVKGFYPSDIAVEWESNGQPENNYKTTPPVLDSDGSFFLYSKLTVDKSRWQQGNVFSCSVMHEALHNHYTQKSLSLSPG
# B13: L-Yr-13&14-08 (Fc fusion)
# chain: QVQLQESGGGLVQPGGSLRLSCAASGSTFSISAMGWYRQPPGKQRELVALIIMSDGDTNYQDSVKGRFTISRDNANNTMYLQMNSLKLEDTAVYYCYARTGYGSGRLMGHEYDYWGQGTQVTVSSTHTCPPCPAPEAAGGPSVFLFPPKPKDTLMISRTPEVTCVVVDVSHEDPEVKFNWYVDGVEVHNAKTKPREEQYNSTYRVVSVLTVLHQDWLNGKEYKCKVSNKALPAPIEKTISKAKGQPREPQVYTLPPSREEMTKNQVSLTCLVKGFYPSDIAVEWESNGQPENNYKTTPPVLDSDGSFFLYSKLTVDKSRWQQGNVFSCSVMHEALHNHYTQKSLSLSPG
# B14: L-Yr-13&14-07 (Fc fusion)
# chain: B13 chain with P14A, G16D, S30G, S32T, L50A, N76K
# B15: A-Ye-03 (Fc fusion)
# chain: QVQLQESGGGLVQAGGSLRLSCAASGFTLDYYAIGWFRQAPGKEREGVLCISSSGETTYYSDSVKGRFTISRDNAKNKVYLQMNSLKPEDTAVYYCGAELLGSGEGCYVWSRDGSYWGQGTQVTVSSTHTCPPCPAPEAAGGPSVFLFPPKPKDTLMISRTPEVTCVVVDVSHEDPEVKFNWYVDGVEVHNAKTKPREEQYNSTYRVVSVLTVLHQDWLNGKEYKCKVSNKALPAPIEKTISKAKGQPREPQVYTLPPSREEMTKNQVSLTCLVKGFYPSDIAVEWESNGQPENNYKTTPPVLDSDGSFFLYSKLTVDKSRWQQGNVFSCSVMHEALHNHYTQKSLSLSPG
# B16: L-Yr-13&14-17 (Fc fusion)
# chain: QVQLQESGGGLVQAGGSLRLSCAASRSIFSSYVMAWYRQAPGKERELVALIRYGGSTDYADSVKGRFTISRDNSKNTLILQMNSLKPEDTAMYYCAASKSAYIFDDRDYWGQGTQVTVSSTHTCPPCPAPEAAGGPSVFLFPPKPKDTLMISRTPEVTCVVVDVSHEDPEVKFNWYVDGVEVHNAKTKPREEQYNSTYRVVSVLTVLHQDWLNGKEYKCKVSNKALPAPIEKTISKAKGQPREPQVYTLPPSREEMTKNQVSLTCLVKGFYPSDIAVEWESNGQPENNYKTTPPVLDSDGSFFLYSKLTVDKSRWQQGNVFSCSVMHEALHNHYTQKSLSLSPG
# Biological target: T1, 4-1BB antigen (human, UniProt Q07011 24-186, limits assumed)
# T1 construct: also called human 4-1BB antigen; human 4-1BB protein
# Test: BLI (ForteBio), antibody on AHQ sensor, 100 nM 4-1BB antigen, 1:1 model
# Method: ForteBio affinity determination was performed according to the existing method (Estep, P et al., Solution-based measurement of high-throughput antibody-antigen affinity and epitope classification, MAbs, 2013.5(2):p. 270-8). Briefly, the sensor was equilibrated offline for 30 min in the assay buffer, then the baseline was established by detection online for 60 s, and the purified antibody obtained as described above was loaded onto the AHQ sensor online. Then, the sensor was put into 100 nM 4-1BB antigen to act for 5 minutes, and the sensor was transferred to PBS and dissociated for 5 minutes. Analysis of kinetics was performed using a 1:1 binding model.
# T1 sequence (Q07011 24-186 limits assumed): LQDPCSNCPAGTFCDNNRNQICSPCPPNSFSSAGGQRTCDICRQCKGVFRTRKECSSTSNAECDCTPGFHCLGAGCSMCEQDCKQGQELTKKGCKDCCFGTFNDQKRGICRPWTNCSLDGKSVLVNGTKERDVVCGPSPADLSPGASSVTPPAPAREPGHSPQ
row,Kd [nM],Binder
1,11.9,B1
2,26.8,B2
3,20.8,B3
4,15.1,B4
5,222,B5
6,17.5,B6
7,23.2,B7
8,21.6,B8
9,21,B9
10,46,B10
11,30.8,B11
12,44.7,B12
13,20.5,B13
14,14.3,B14
15,28.3,B15
16,25.1,B16
